# Patent publication US20030059862A1 (Human Genome Sciences, published 2003)
# Where a chain is given by its changes, count along the chain named.
# B1: A030D09 (scFv)
# scFv: QVQLQQSGAEVKKPGSSVKVSCKTSGGAFSHYAIHWVRLAPGQGLEWMGDIIPVYGSTTYAQKFQDRVTISADESTSTAYMELSSLRSEDTAVYYCARSWYYDILTGYWDYYYMDVWGKGTLVTVSSGGGGSGGGGSGGGGSSELTQDPAVSVALGQTVRITCQGDSLRSYYASWYQQKPGQAPVLVIYGKNNRPSGIPDRFSGSSSGNTASLTITGAQAEDEADYYCNSRDSSGNHVVFGGGTKLTVLG
# B2: A027A11 (scFv)
# scFv: QVQLQQSGAEVKKPGSSVKVSCKASGGTFSTYAITWVRQAPGQGLEWMGDIIPVFGIPNYAQMFQDRVTITADESTSTAYLELNSLGAEDTAVYYCARGSQAFEIWGKGTTVTVSSGGGGSGGGGSGGGGSQSVLTQPASVSGSPGQSITISCTGTSSDVGGYNYVSWYQQHPGKAPKLMIYEGSKRPSGVSNRFSGSKSGNTASLTISGLQAEDEADYYCSSYTTRSTRVFGGGTKLTVLG
# B3: A034G03 (scFv)
# scFv: QVQLQQSGAEVKKPGSSVKVSCKASGGTFSNYAISWVRQAPGQGLEWMGGIIPLFDTPNYAQKFQGRVTITADESTSTAYMELSSLRSEDTAVYYCARGNTGPRPFDPWGQGTLVTVSSGGGGSGGGGSGGGGSAQAVLTQPSSVSGAPGQRVTISCSATSPNIGAGDEIHWYQVSPGKAPKLLIYGDIKRPSGVSDRFSGSKSGTTASLAITGLRPEDEADYYCQSYDRTLSGSVVFGGGTKVTVLG
# B4: A027B01 (scFv)
# scFv: QVQLLQSAAEVKKPGSSVKVSCKTSGGTFRNHAISWVRQAPGQGLEWMGGIIPIFGTANYAQKFQGRVTITADESTSTAYMELSSLRSEDTAVYYCARGISAGMDVWGRGTLVTVSSGGGGSGGGGSGGGGSDIQMTQSPSFLSASIGDRVTITCRASEGIYHWLAWYQQKPGKAPKLLIYKASSLASGAPSRFSGSGSGTDFTLTISSLQPDDFATYYCQQYSNYPLTFGGGTKLEIKR
# B5: A034H05 (scFv)
# scFv: EVQLVQSGAEVKKPGSSVKVSCKVSGGSFPNYAINWVRQAPGQGLEWMGSLVPVFLTPNYAERFQDRVTITADESTSTAYMELRSLRSDDTAVFYCARSGGDGYRDYGMDLWGRGTLVTVSSGGGGSGGGGSGGGGSAQSVLTQPPSASGTPGQRVTISCSGSSSNIGRNTVNWFQQLPGTAPKLLIYSSNQRPSGVPDRFAGSKSGTSASLAISGLQSEDEADYYCAAWDDSLNGLVFGGGTKLTVLG
# B6: A013B07 (scFv)
# scFv: EVQLVQSGAEVKKPGASVKVSCKTSGYTFTDNYMHWVRQAPGQGLEWMGWISPNSSTTLYAQKFRGRVTLTRDTSVSTAYMELSGLDSDDTALYFCARGGRLAGSTVFTPAFEYWGQGTMVTVSSGGGGSGGGGSGGGGSAQSVLTQPPSVSEAPRQRVTISCSGSSSNIGANAVNWYQQLPGKAPKLLIYFDDLLPSGVSDRFSGSKSGTSASLAISGLQSEDEADYYCAAWDDSLNGVVFGGGTKLTVLG
# B7: A020F03 (scFv)
# scFv: B6 scFv with Q117R, S143A, P149S, A172N, N176K, F192Y, V240Y, G244T, L248V
# B8: A053H04 (scFv)
# scFv: EVQLVQSGAEVKKPGSSVKVSCKASGGTFSNYAISWVRQAPGQGLEWMGGIIPLFDTPNYAQKFQGRVTITADESTSTAYMELSSLRSEDTAVYYCARGNTGPRPFDPWGKGTTVTVSSGGGGSGGGGSGGGGSAQAVLTQPSSVSGAPGQRVTVSCTGSSSNIGAGYEVNWYQQLPGTAPKLLIYGDTNRPSGVPDRFSGSKSGTSASLAITGLQAEDEANYYCQSYDSGPGGPVVFGGGTKLTVLG
# Experiments:
# biotinylated APRIL [1] = molecular target: T1, biotinylated APRIL (Homo sapiens (Human), UniProt O75888 105-250, biotinylated using NHS-biotin at a molar ratio of 20:1 biotin:APRIL); experiment: scFv inhibition of bio-APRIL (50 ng/ml) binding to coated TACI fusion protein, streptavidin-DELFIA; partial inhibition
# T1 construct: also called bio-APRIL
# T1 sequence: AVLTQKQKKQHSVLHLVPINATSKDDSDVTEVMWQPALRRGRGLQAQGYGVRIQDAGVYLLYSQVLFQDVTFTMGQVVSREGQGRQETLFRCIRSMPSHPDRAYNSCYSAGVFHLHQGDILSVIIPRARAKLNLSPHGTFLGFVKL
# Procedure: (§1) APRIL binds to BCMA with higher affinity than its binds to TACI so, inhibition of biotinylated APRIL (bio-APRIL) binding to BCMA can be used to screen selection outputs as periplasmic extracts for neutralizers and then assess potency of the positives as purified scFvs. To perform this assay, each well of a black 96 well flat-bottomed plate (Costar) was coated with 1.25 ng BCMA fusion protein overnight at 4° C. The wells were blocked with 3% milk in PBS for an hour at room temperature. ScFv were then added in the presence of 5 ng/ml biotinylated APRIL for 90 minutes at room temperature. Binding of biotinylated APRIL was detected via streptavidin Delfia (Wallac) added at a 1:1000 dilution in Delfia assay buffer (Wallac). After an hour at room temperature this was read on a Wallac 1420 workstation at 620 nm.
# (§2) An assay similar to that described above can also be used to test if anti-APRIL antibodies of the invention are able to inhibit binding of bio-APRIL to TACI. In this case, the plate was coated with 2.5 ng TACI fusion protein per well and scFv were added in the presence of 50 ng/ml biotinylated APRIL instead of 5 ng/ml. Otherwise, the method was identical to that for the BCMA:bio-APRIL assay.
# biotinylated APRIL [2] = molecular target: T1, biotinylated APRIL; experiment: scFv inhibition of bio-APRIL (5 ng/ml) binding to coated BCMA fusion protein, streptavidin-DELFIA
# Procedure: as §1
# biotinylated APRIL [3] = molecular target: T1, biotinylated APRIL; experiment: scFv inhibition of bio-APRIL (5 ng/ml) binding to coated BCMA fusion protein, streptavidin-DELFIA; partial inhibition
# Procedure: as §1
# biotinylated APRIL [4] = molecular target: T1, biotinylated APRIL; experiment: scFv inhibition of bio-APRIL (50 ng/ml) binding to coated TACI fusion protein, streptavidin-DELFIA
# Procedure: as §1, §2
IC50 (biotinylated APRIL [1]) [nM],IC50 (biotinylated APRIL [2]) [nM],IC50 (biotinylated APRIL [3]) [nM],IC50 (biotinylated APRIL [4]) [nM],Binder
150,55,,,B1
5.6,2.7,,,B2
36,6,,,B3
94,,3.1,,B4
13,10,,,B5
,7.7,,10,B6
,12,,3.5,B7
139,25,,,B8
